Assays:
GST-Rabaptin5_(551-862) = GST-Rabaptin5_(551-862) (UniProt Q15276); assay: BLI; BLItz system (ForteBio); 0.5 µM GST-Rabaptin5_(551-862) or GST-EEA1_(36-91) immobilised on anti-GST sensors; GppNHP-loaded Rab5 or mUbRab5 at several concentrations in solution; 50 mM Tris-HCl, 150 mM NaCl, 10 mM MgCl2, 1 mM GppNHP; global fit, Kd = koff/kon
GST-EEA1_(36-91) = GST-EEA1_(36-91) (UniProt Q15075); assay: as above
EEA1 (Homo sapiens) = EEA1 (Homo sapiens) (UniProt Q15075); conditions: cited from earlier work

Substance	Kd (GST-Rabaptin5_(551-862))	Kd (GST-EEA1_(36-91))	other results
mUbRab5_(K140), chemically conjugated monoubiquitinated Rab5 (ubiquitin G76C disulfide-linked to Rab5 K140C) (from UniProt P0CG48 1-76)	37.7 µM	108 µM	
mUbRab5_(K165), chemically conjugated monoubiquitinated Rab5 (ubiquitin G76C disulfide-linked to Rab5 K165C) (from UniProt P0CG48 1-76)		4.7 µM	
Rab5 (from UniProt P20339)			Kd (EEA1 (Homo sapiens)): 2.4 µM

Further substances by falling Kd (GST-EEA1_(36-91)), results first:

Kd (GST-Rabaptin5_(551-862))	Kd (GST-EEA1_(36-91))	Substance	other results
8 µM	18.4 µM	mUbRab5_(K116), chemically conjugated monoubiquitinated Rab5 (ubiquitin G76C disulfide-linked to Rab5 K116C) (from UniProt P0CG48 1-76)	
8 µM	5.8 µM	Rab5 (unmodified Rab5a) (from UniProt P20339 1-215) (natural protein)	koff (GST-Rabaptin5_(551-862)): 0.0022 s⁻¹; kon (GST-Rabaptin5_(551-862)): 660 M⁻¹ s⁻¹; koff (GST-EEA1_(36-91)): 0.0026 s⁻¹; kon (GST-EEA1_(36-91)): 450 M⁻¹ s⁻¹
